Test results reported in patent US20050003416.

B1: enterokinase-activated SolCorin-EK (protein)
chain 1: LEDASLPGDQSHRNTSACMNITHSQCQMLPYHATLTPLLSVVRNMEMEKFLKFFTYLHRLSCYQHIMLFGCTLAFPECIIDGDDSHGLLPCRSFCEAAKEGCESVLGMVNYSWPDFLRCSQFRNQTESSNVSRICFSPQQENGKQLLCGRGENFLCASGICIPGKLQCNGYNDCDDWSDEAHCNCSENLFHCHTGKCLNYSLVCDGYDDCGDLSDEQNCDCNPTTEHRCGDGRCIAMEWVCDGDHDCVDKSDEVNCSCHSQGLVECRNGQCIPSTFQCDGDEDCKDGSDEENCSVIQTSCQEGDQRCLYNPCLDSCGGSSLCDPNNSLNNCSQCEPITLELCMNLPYNSTSYPNYFGHRTQKEASISWESSLFPALVQTNCYKYLMFFSCTILVPKCDVNTGERIPPCRALCEHSKERCESVLGIVGLQWPEDTDCSQFPEENSDNQTCLMPDEYVEECSPSHFKCRSGQCVLASRRCDGQADCDDDSDEENCGCKERDLWECPSNKQCLKHTVICDGFPDCPDYMDEKNCSFCQDDELECANHACVSRDLWCDGEADCSDSSDEWDCVTLSINVNSSSFLMVHRAATEHHVCADGWQEILSQLACKQMGLGEPSVTKLIQEQEKEPRWLTLHSNWESLNGTTLHELLVNGQSCESRSKISLLCTKQDCGRRPAADDDDK
chain 2: ILGGRTSRPGRWPWQCSLQSEPSGHICGCVLIAKKWVLTVAHCFEGRENAAVWKVVLGINNLDHPSVFMQTRFVKTIILHPRYSRAVVDYDISIVELSEDISETGYVRPVCLPNPEQWLEPDTYCYITGWGHMGNKMPFKLQEGEVRIISLEHCQSYFDMKTITTRMICAGYESGTVDSCMGDSGGPLVCEKPGGRWTLFGLTSWGSVCFSKVLGPGVYSNVSYFVEWIKRQIYIQTFLLNKGELGTELGSEGKPIPNPLLGLDSTRTGHHHHHH
B2: enterokinase-activated SolCorinPD-EK (protein)
chain 1: KQDCGRRPAADDDDK
chain 2: B1 chain 2

Assays:
[1] = test system: T1, SolCorin-EK (soluble modified human corin, zymogen)
T1 sequence: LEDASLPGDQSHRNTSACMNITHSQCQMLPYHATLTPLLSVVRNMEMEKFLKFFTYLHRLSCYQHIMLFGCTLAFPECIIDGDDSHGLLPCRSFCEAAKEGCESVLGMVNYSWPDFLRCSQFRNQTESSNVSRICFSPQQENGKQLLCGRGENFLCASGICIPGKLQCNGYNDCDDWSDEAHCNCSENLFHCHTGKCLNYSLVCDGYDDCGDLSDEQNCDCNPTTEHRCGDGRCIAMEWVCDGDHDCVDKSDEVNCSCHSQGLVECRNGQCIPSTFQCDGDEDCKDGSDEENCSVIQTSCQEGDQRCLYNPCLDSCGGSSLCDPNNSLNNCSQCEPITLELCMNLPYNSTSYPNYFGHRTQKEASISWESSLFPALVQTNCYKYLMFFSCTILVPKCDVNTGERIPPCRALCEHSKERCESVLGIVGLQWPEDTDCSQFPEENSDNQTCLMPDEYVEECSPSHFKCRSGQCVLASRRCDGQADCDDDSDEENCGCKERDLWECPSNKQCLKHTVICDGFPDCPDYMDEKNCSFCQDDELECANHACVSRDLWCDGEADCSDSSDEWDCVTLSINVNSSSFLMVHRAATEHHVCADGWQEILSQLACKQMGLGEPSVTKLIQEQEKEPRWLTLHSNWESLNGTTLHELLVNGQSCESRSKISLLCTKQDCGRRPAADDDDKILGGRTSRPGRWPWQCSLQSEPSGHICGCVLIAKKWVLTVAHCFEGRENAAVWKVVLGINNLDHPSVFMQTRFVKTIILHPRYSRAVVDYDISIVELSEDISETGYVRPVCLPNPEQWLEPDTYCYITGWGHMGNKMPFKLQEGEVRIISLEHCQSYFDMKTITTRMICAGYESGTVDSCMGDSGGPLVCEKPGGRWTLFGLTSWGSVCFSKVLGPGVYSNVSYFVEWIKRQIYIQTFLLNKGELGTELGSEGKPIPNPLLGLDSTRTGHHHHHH

[2] = test system: T2, SolCorinPD-EK (soluble modified human corin protease domain, zymogen)
T2 sequence: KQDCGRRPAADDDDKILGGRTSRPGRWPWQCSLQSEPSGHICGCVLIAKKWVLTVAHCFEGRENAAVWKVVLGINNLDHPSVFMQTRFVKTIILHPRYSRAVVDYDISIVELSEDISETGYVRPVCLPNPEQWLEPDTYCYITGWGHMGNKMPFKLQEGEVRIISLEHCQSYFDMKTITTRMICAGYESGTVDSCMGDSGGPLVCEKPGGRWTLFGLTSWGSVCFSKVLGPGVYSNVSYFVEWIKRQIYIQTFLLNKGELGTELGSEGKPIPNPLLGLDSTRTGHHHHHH

[3] = target: T3, recombinant human wild-type pro-ANP with C-terminal V5 and 6xHis tags, P01160
T3 chain: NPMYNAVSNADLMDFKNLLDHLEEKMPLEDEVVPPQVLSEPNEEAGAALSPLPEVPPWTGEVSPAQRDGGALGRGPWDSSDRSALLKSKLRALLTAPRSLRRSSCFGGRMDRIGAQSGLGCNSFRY

Row | Molecule | cleavage of soluble corin by 0, 2, 10, 20 or 40 units enterokinase, 25 C, 4 hrs (anti-V5 Western blot) [1] | cleavage of soluble corin by 0, 2, 10, 20 or 40 units enterokinase, 25 C, 4 hrs (anti-V5 Western blot) [2] | processing of pro-ANP to ANP in mixed conditioned media, 4 C, 3 hours (anti-V5 immunoprecipitation and Western blot) [3]
1 | purified enterokinase (Calbiochem) | both the long form (SolCorin-EK) and short form (SolCorinPD-EK) of soluble modified human corin were cleaved by exposure to enterokinase in a dose-dependent manner | both the long form (SolCorin-EK) and short form (SolCorinPD-EK) of soluble modified human corin were cleaved by exposure to enterokinase in a dose-dependent manner | 
2 | B1 |  |  | pro-ANP was processed to ANP by the long form (SolCorin-EK), but not the short form (SolCorin-PD-EK), of soluble modified human corin upon activation by enterokinase in vitro
3 | B2 |  |  | pro-ANP was processed to ANP by the long form (SolCorin-EK), but not the short form (SolCorin-PD-EK), of soluble modified human corin upon activation by enterokinase in vitro
